What all share (assay): flow cytometry on cells
(In flow cytometry, cells or beads pass a laser one at a time.)

Assay [1] deals with Donkey1.1 H31TAG scFv with OPG.
Assay [2] has as its target Donkey1.1 L93TAG scFv with OPG.
For assay [3], the target named is Donkey1.1 H54TAG scFv with AzF.
Assay [4] concerns the target Donkey1.1 H54TAG scFv with OPG.
For assay [5], the target named is Donkey1.1 L93TAG scFv with AzF.
In assay [6] the target is Donkey1.1 H31TAG scFv with AzF.
Assay [7] concerns the target Donkey1.1 H31TAG scFv with AzMF.
Assay [8] addresses Bovine2.2 L93TAG scFv with AzF.
Assay [9] addresses Bovine2.2 L93TAG scFv with OPG.
In assay [10] the target is Bovine2.2 H31TAG scFv with AzF.
The target in assay [11] is Bovine2.2 H54TAG scFv with AzF.
In assay [12] the target is Bovine2.2 H31TAG scFv with OPG.
For assay [13], the target named is Bovine2.2 H54TAG scFv with OPG.

Bounds are passed on as bounds.

“biotinylated donkey IgG (natural protein)”: the dissociation constant Kd (in general, the equilibrium constant for the complex coming apart) in [1] turned out to be 365 nM; in [2], 45 nM; in [3], 213 nM; in assay [4], 55.8 nM; in assay [5], 125 nM; in [6] it was 561 nM. In addition, the antigen binding level relative to wild-type at 200 nM IgG (% of wild-type) in assay [1], in assay [6] and in assay [7] was under 10 throughout.
Turning to “biotinylated bovine IgG (natural protein)”, the dissociation constant Kd in [8] worked out at 332 nM; in assay [9], 179 nM; in assay [10], 546 nM; in assay [11] it was 380 nM; in [12], 601 nM; in assay [13], 183 nM.

Source of the values: publication PMC8096149.
